The record followed here is publication PMC3797041 (PLoS ONE, 2013).

The chains are these.
B1: hybrid antibody A3C8 (VHH)
VHH: EVQLVESGGGLVQAGDSLRLSCTASGRTLGDYGVAWFRQAPGKEREFVSVISRSTIITDYADSVRGRFSISADSAKNTVYLQMNSLKPEDTAVYYCAVIANPVYATSRNSDDYGHWGQGTQVTVSS
B2: hybrid ADD (VHH)
VHH: EVQLQASGGGLVQPGGSLRLACQYSGRTFSRAVMGWFRQSPGKEREFVAAIRWTDSRTPHTDSRFTTSSDNFKKTAYLQMNGLKPEDTALYYCTEDTWNSVVTGTAADWSQGTQVTVSS
B3: hybrid construct A3D1 (VHH)
VHH: EVQLVESGGGLVQAGDSLRLSCTASGREGTTTVGWFRQAPGKEREFVAAIRWTDSRTPHTDSRFSISADSAKNTVYLQMNSLKPEDTAVYYCAADTWNSVVTGTAADWGQGTQVTVSS
B4: hybrid DAD (VHH)
VHH: EVQLQASGGGLVQPGGSLRLACQYSGREGTTTVGWFRQSPGKEREFVAAISAAPGTAYYAFYADSVRGRFTTSSDNFKKTAYLQMNGLKPEDTALYYCTEDTWNSVVTGTAADWSQGTQVTVSS
B5: hybrid antibody C8A3 (VHH)
VHH: EVQLQASGGGLVQGGDSLRLSCAASGRTFSRAVMGWFRQAPGKEREFVSAISAAPGTAYYAFYADSVRGRFTISRDNAKNAVYLQMNSLKPEDTAVYYCAVDLKMQVAAYMNQRSVDYWGQGTQVTVSS
B6: hybrid DDA (VHH)
VHH: EVQLQASGGGLVQPGGSLRLACQYSGREGTTTVGWFRQSPGKEREFVAAIRWTDSRTPHTDSRFTTSSDNFKKTAYLQMNGLKPEDTALYYCTEDLKMQVAAYMNQRSVDYWSQGTQVTVSS
B7: hybrid AAD (VHH)
VHH: EVQLVESGGGLVQAGDSLRLSCTASGRTFSRAVMGWFRQAPGKEREFVAAISAAPGTAYYAFYADSVRGRFSISADSAKNTVYLQMNSLKPEDTAVYYCAADTWNSVVTGTAADWGQGTQVTVSS
B8: hybrid construct D1A3 (VHH)
VHH: EVQLQASGGGLVQPGGSLRLACQYSGRTFSRAVMGWFRQSPGKEREFVAAISAAPGTAYYAFYADSVRGRFTTSSDNFKKTAYLQMNGLKPEDTALYYCTEDLKMQVAAYMNQRSVDYWSQGTQVTVSS

T1 sequence (P01552 28-266): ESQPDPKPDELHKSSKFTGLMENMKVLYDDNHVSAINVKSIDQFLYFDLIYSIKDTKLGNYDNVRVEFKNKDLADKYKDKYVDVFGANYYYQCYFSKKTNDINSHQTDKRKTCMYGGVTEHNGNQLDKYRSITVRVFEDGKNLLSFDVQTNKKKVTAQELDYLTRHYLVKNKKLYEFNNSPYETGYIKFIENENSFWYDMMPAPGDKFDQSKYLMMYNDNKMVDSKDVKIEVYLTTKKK

This experiment concerns the target T1, Staphylococcal enterotoxin B (Staphylococcus aureus, strain , UniProt P01552).
T1 construct: source: bought: Toxin Technologies
In words: SPR. Particulars: both partners purified.
Take B1: the binding result was “no binding”. Still for that read-out and setting: as for B2, the entry is “no binding”. Still for that read-out and setting: the result for B3 reads “no binding”. For B4, the Kd stood at 20 nM. The same measure, in the same setting: the result for B5 reads 2.7 nM. In the case of B6, the binding result was “no binding”. The molecule B7 registered a Kd of 12 nM. The same measure, in the same setting: as for B8, the figure is 0.56 nM.

One may read the Kd as the concentration at which binding is half-saturated.
